Experiments:
[1] = target: T1, 重组人β2-微球蛋白 (recombinant human β2-microglobulin, expressed in E. coli) (human, UniProt P61769 21-119); experiment: indirect ELISA, hybridoma supernatant on coated recombinant human β2-MG (1 μg/mL), HRP goat anti-mouse IgG
T1 construct: The same in-house recombinant protein serves as immunogen, ELISA coat and Western blot sample; also called β2-MG; 人β2-MG

[2] = target: T1, 重组人β2-微球蛋白 (recombinant human …); experiment: Western blot, HRP-labelled scFv on recombinant β2-MG

T1 sequence (P61769 21-119 limits assumed): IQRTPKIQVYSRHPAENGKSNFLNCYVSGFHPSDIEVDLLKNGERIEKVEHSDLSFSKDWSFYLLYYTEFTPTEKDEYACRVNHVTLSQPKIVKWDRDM

Binder | binding result [1] | binding result [2]
杂交瘤细胞株B12所表达抗体 (antibody expressed by hybridoma cell line B12) (antibody, V domains shown, Mouse monoclonal antibody tested as hybridoma culture supernatant and detected with HRP goat anti-mouse IgG) VH: DVKLVESGGGLVKPGGSLKLSCAASGFTFGSYTMSWVRQTPEKRLEWVAAISSGGSFTYYLDSVKGRFTISRDSAKTTLYLQMGSLKSEDTAMYYCSREGGPYYGSHYYALDYWGQGTSVTVSS VL: DIQMTQSTSSLSASLGDGVTISCRASQDITNYLNWYQQRPDGAVRLLIYYTSRLHSGVPSRFSGSGSGTNYSLTISNLEQEDIATYFCQQGNTLPPTFGGGTKLEIK | binds | 
杂交瘤细胞株B17所表达抗体 (antibody expressed by hybridoma cell line B17) (antibody, V domains shown, Mouse monoclonal antibody tested as hybridoma culture supernatant and detected with HRP goat anti-mouse IgG) VH: not shown VL: QIVLTQSPAIMSASPGEKVTITCSASSSVSYMHWFQQKPGTSPKLWIYSTSNLASGVPARFSGSGSGTSYSLTISRMEAEDAATYYCHQRSSYPLTFGAGTKLEIK | binds | 
单链抗体BM12 (anti-human β2-microglobulin scFv BM12) (scFv, expressed in Pichia pastoris X-33; HRP-labelled in the Western blot; used as coating or gold-labelled antibody in the colloidal gold card; also called BM12-HRP; BM12-scFv) scFv: DVKLVESGGGLVKPGGSLKLSCAASGFTFGSYTMSWVRQTPEKRLEWVAAISSGGSFTYYLDSVKGRFTISRDSAKTTLYLQMGSLKSEDTAMYYCSREGGPYYGSHYYALDYWGQGTSVTVSSGGGGSGGGGSGGGGSDIQMTQSTSSLSASLGDGVTISCRASQDITNYLNWYQQRPDGAVRLLIYYTSRLHSGVPSRFSGSGSGTNYSLTISNLEQEDIATYFCQQGNTLPPTFGGGTKLEIK |  | binds
单链抗体BM17 (anti-human β2-microglobulin scFv BM17) (scFv, expressed in Pichia pastoris X-33; HRP-labelled in the Western blot; used as gold-labelled or coating antibody in the colloidal gold card; also called BM17-HRP; BM17-scFv) scFv: QVTLKESGPGILQPSQTLSLTCSFSGFSLSTSGMGVSWIRQPSGKGLEWLAHIYWDDDKRYNPSLKSRLTISKDTSSNQVFLKITSVDTADTATYYCARVYYGYDGGFFDYWGQGTTLTVSSGGGGSGGGGSGGGGSQIVLTQSPAIMSASPGEKVTITCSASSSVSYMHWFQQKPGTSPKLWIYSTSNLASGVPARFSGSGSGTSYSLTISRMEAEDAATYYCHQRSSYPLTFGAGTKLEIK |  | binds

— patent publication CN109666072A (ZONHON BIOPHARMA INST INC, dated 2019)
